Test results from US20180250396A1 (FONDAZIONE IRCCS ISTITUTO NAZIONALE DEI TUMORI, published 2018).

Tests used:
[1] = target: T1, Recombinant human TRAIL-R2 (R&D Systems) (human, UniProt O14763 54-182, limits assumed); test: SPR (BIAcore), recombinant TRAIL-R2 immobilised on a CM5 chip, 5 scDb concentrations from 400 to 25 nM
T1 construct: Bought recombinant protein, amine-coupled to a CM5 chip; also called TRAIL-R2 recombinant protein; recombinant receptor

[2] = target: T2, TRAIL-R2 on cells (TRAIL-R2+ human melanoma and other tumor cell lines) (human, UniProt O14763 56-440); test: soluble scFv on TRAIL-R2+ cells
T2 construct: whole, on cells; Endogenous receptor on cell lines; also called TRAIL-R2+ cells

[3] = target: T3, naive TRAIL-R2 captured from SU-DHL-4 cell lysate (human, UniProt O14763 56-440, limits assumed); test: single clone phage ELISA (scFv on phage), TRAIL-R2 captured from SU-DHL-4 lysate
T3 construct: also called naïve TRAIL-R2; natural TRAIL-R2

B1: scDb 16e2/hUCTH1 (bispecific antibody)
chain: EVQLVQSGGGVERPGGSLRLSCAASGFTFDDYGMSWVRQAPGKGLEWVSGINWNGGSTGYADSVKGRVTISRDNAKNSLYLQMNSLRAEDTAVYYCAKILGAGRGWYFDLWGKGTTVTVSSTGGGGSDIQMTQSPSSLSASVGDRVTITCRASQDIRNYLNWYQQKPGKAPKLLIYYTSRLESGVPSRFSGSGSGTDYTLTISSLQPEDFATYYCQQGNTLPWTFGQGTKVEIKRGGGGSGGGGSGGGGSEVQLVESGGGLVQPGGSLRLSCAASGYSFTGYTMNWVRQAPGKGLEWVALINPYKGVSTYNQKFKDRFTISVDKSKNTAYLQMNSLRAEDTAVYYCARSGYYGDSDWYFDVWGQGTLVTVSSGGGGSRSELTQDPAVSVALGQTVRITCQGDSLRSYYASWYQQKPGQAPVLVIYGKNNRPSGIPDRFSGSSSGNTASLTITGAQAEDEADYYCNSRDSSGNHVVFGGGTKLTVLAAAHHHHHHGAAEQKLISEEDLNGAA
notes: Made in E. coli HB2151 periplasm; also called 16e2×hUCTH1 scDb; 16E2×hUCTH1 scDb
Kd [1]: 148 nM

B2: Clone 44 anti-TRAIL-R2 ScFv isolated with Phage Display (scFv)
scFv: QVHLRESGGGLVQPGRSLRLSCAASGFTFDDYAMHWVRQAPGKGLEWVSGISWNSGSISYADSVKGRFTISRDNAKNSLYLQMSSLRSEDTAVYYCARDPNHGGDRRDDALDMWGQGTMVTVSSGGGGSGGGGSGGGGSSELTQDPAVSVALGQTVRITCQGHSLRSYFASWYQQRPRQAPTLVIYGKNNRPSGIPDRFSGSSSGNTASLTITGAQAEDEADYYCGSRDSSSTHRGVFGGGTKLTVLGAA
notes: Tested on phage and as soluble scFv
binding result [2]: binds | binding result [3]: binds

B3: Clone 8 anti-TRAIL-R2 ScFv isolated with Phage Display (scFv)
scFv: EVQLLESGGGLVQPGGSLRLSCAASGFTFSSYAMSWVRQAPGKGLEWVSAISQQGQVTDYADSVKGRFTISRDNSKNTLYLQMNSLRAEDTAVYYCAKRWNRFDYWGQGTLVIVSSGGGGSGGGGSGGGGSTDIQMTQSPSSLSASVGDRVTITCRASQSISSYLNWYQQKPGKAPKLLIYAASGLQSGVPSRFSGSGSGTDFTLTISSLQPEDFATYYCQQHSMSPNTFGQGTKVEIKRAA
notes: as for B2
binding result [2]: binds | binding result [3]: binds
